Source: the nanobody polyreactivity screen of Harvey et al. (2022)

Assay: yeast display, Sf9 membrane polyspecificity reagent, FACS + sequencing; frameworks hold sequencing errors
Procedure, shortened: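 Polyreactivity labels are assigned by the sorting gate from which each nanobody was recovered. The gates were low and high (top ~1%), set on anti-HA fluorescence for expression and streptavidin fluorescence for reagent binding. Before sorting, galactose-induced (36–48 hours) yeast display cells were stained for 1 hour at 4 °C with 10% biotinylated, detergent-solubilized Sf9 membrane reagent.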

For “QVQLVESGGGLDQAGGSLRLSCAPSGRIFYTNAMGWYRQAPGKERELVAAISSGGGRTYYADSVKGRFTISRDNAKNTVYLQMNSLKPEDTAVYYCAASNVGYRSYSRGFDYWGQGTQVTVSS”, which “polyreactivity (PSR sort gate)” value is on record?
The value was “high polyreactivity”.

With “QVQLVESGGGLVQAGGSLRFSCAASGFTFTVYAMGWYRQAPGKGRELVAAISWNGGSTYYADSVKGRFTISRDNATNTDYLQRNSLKPEDTAVYYCNKYYYRGVRYYRDHDYWGQGTQVTVSS” as the sequence, how does the “polyreactivity (PSR sort gate)” value read?
Its value is “high polyreactivity”.

For “QVQLVESGGGLVQAGGSLRLSCAASGLTFGAYAMGWYRQAPGKEREFVAAITYSGGSTNYADSVKGRFTISRDNAKNTVYLQMNSLKPEDTAVYFCNAGYYSPWAFYPYAYWGQGTQVTVSS”, which “polyreactivity (PSR sort gate)” value is on record?
Its value is “high polyreactivity”.

Which “polyreactivity (PSR sort gate)” value does the source give for “QVQIVESGGGLVQAGGSLSLICAASGYIFGNYAMGWYRQAPGKESELVADITWRGDSTYADSVKGRFTISRDNSKNTVYLQMNSLKPEDTAVYYCAADIATEYWYTGYDHWGQGTQVTVSS” here?
The value was “low polyreactivity”.

For “QVQLVESGGGLVQAGGSLRLSCAASGSIFYPYAMGWYRQAPGKERELVAAIRNGGSTYYADSVKGRFTISRDNAKNTVYLHMNSLKPEDTAVYYCAASVRRRHPFEYWGQGTQVTVSS”, which “polyreactivity (PSR sort gate)” value is on record?
The value was “high polyreactivity”.

With “QVHLVESGGGLVQAGGSLRLSCAASGRTFYANAMGWYIQAPGKERELVAAISTGGDGTYYADSVKGRFTISRDNAKNTVYLQMNSLKPEDTAVYYCAVRHRASGILYDYWGQGTQVTVSS” as the sequence, how does the “polyreactivity (PSR sort gate)” value read?
The value was “low polyreactivity”.

With “QVQLVESGGGLVQAGGSLRLSSAASGFTFVRYTMGWYRQAPGKERELVAVIRRGGSTYYADSVKGRFTISRDNAKNTVYLQMNSLKPEDTAVYYCNALSALAVEDGYWGLGTQVTVSS” as the sequence, how does the “polyreactivity (PSR sort gate)” value read?
The value was “low polyreactivity”.

Which “polyreactivity (PSR sort gate)” value does the source give for “QVQLVESGGGLVQAGGSLRLSCAASGSTFLVYAMGWYRQAPGKERELVARINWRGSSTYADSVKGRFTISRDNAKNTVYLQMNSLKPEDTAVYYCNADSYRYYHPTYIYDYWGQGTQVTVSS” here?
Its value is “low polyreactivity”.

Which “polyreactivity (PSR sort gate)” value does the source give for “QVQLVESGGGLVQAGGSLRLSCAASGSTFNRYAMGWYRQAPGKERELVAGISYSGTRTYYADSVKGRVTISRDNAKNTVYLQMNSLKPEDTAVYYCAAVYPGPYYARRRLFYWGQGTQVTVSS” here?
The value was “high polyreactivity”.

With “QVQLVESGGGLVQAGGSLRLSCAASGRTFWYYTMGWYRQAPGKERELVASITYRGGSTYYADSVKGRFTISRDNAKNTVYLQMNSLKPEDTAVYFCNARYKRYSYDYWGHGTQVTVSS” as the sequence, how does the “polyreactivity (PSR sort gate)” value read?
Its value is “high polyreactivity”.

With “QVQLVESGGGLVQAGGSLRLSCAASGRTFQTYAMGWYRQAPGTERELVAAISSDGSTYYADSVKGRFTISRDNATNTVYFQMHSLKPEDTAVYYRNTAIGDKYDYHVRVDYEYWGQGTQVTLSS” as the sequence, how does the “polyreactivity (PSR sort gate)” value read?
The value was “low polyreactivity”.

With “QVQLVETVVGLVQAGGSLRLSCAASGSIFGFYDMGWYRQAPGKERELVAVISVSDGSTYYADSVKGRFTISRDNAKNTVYLQMNSLKAEDTAVYYCAATPRGSYGYYYWGQGTQVTVSS” as the sequence, how does the “polyreactivity (PSR sort gate)” value read?
The value was “low polyreactivity”.

Which “polyreactivity (PSR sort gate)” value does the source give for “QVQLVESGGGLVQAGGSLRLSCAASGSTFPEYAMGWYRQAPGKERELVADISSGGDTSYADSVKGRFTISRDNAKNTVYLQMNSLNPEDTAVYYCAAGTAGTTGSPKFSGYGYDYWGQGTQVTVSS” here?
The value was “low polyreactivity”.

Which “polyreactivity (PSR sort gate)” value does the source give for “QVQLVESGGGLVLAGGSLRLSCAASGSTFGDYAMGWYRQAPGNERELVAAISARGASTYYADSVKGRFTISRDNAKNTVYLQMNSLKPEDTAVYYCAARYVSSGRRFDYWGQGTQVTVSS” here?
The value was “high polyreactivity”.

With “QVQLVESGGGLVQAGGSLRLSCAASGFTFGHYAMGWYRQAPGKERELVAAISKSGTRTYYADSVKGRFTISRDNAKNTVYLLMNSLKPEDTAVYYCATTAYNGYDYWGQGTQVTVSS” as the sequence, how does the “polyreactivity (PSR sort gate)” value read?
The value was “high polyreactivity”.

For “QVQLVESGGGLVQAGGSLRLSCAASGSTNGRYAMGWYRQAPGKERELVAAISYSGGSTYYADTVKGRFTISRDNAKNTVYLQMNSLKPEDTAVYYCAAQYVRKYRVSRGYNYWGQGTQVTVSS”, which “polyreactivity (PSR sort gate)” value is on record?
Its value is “high polyreactivity”.

Which “polyreactivity (PSR sort gate)” value does the source give for “QVQLVESGGGLVQAGGSLRLSCAASGFIGSNTMGWYRQAPGKERELVAAISWSGGSTYYADSVKGRFTISRDNAKNTVYLQMNSLKPEDTAVYYSAARRNSRARRTFGYWGQGTQVTVSS” here?
Its value is “high polyreactivity”.

With “QVQLVESGGGLVQAGGSLRLSCAASGRIFSFNGMGWYRQAPGKERELVAAITSSGGRTYYADSVKGRFTISRDNAKNTVYLQMNSLKPEDTAVYYCAAELAWEYYWGQGTQVTVSS” as the sequence, how does the “polyreactivity (PSR sort gate)” value read?
Its value is “low polyreactivity”.

With “QVQLVASGGGLVQAGGSLRLTCAASGSIFYAYAMGWSRQAPGKERELVASINSGGNTYYADSVKGRFTISRDNAKNTDYLQMNSLKAEATAVYYCAVDSKDNNDHWGQGTQVTVSS” as the sequence, how does the “polyreactivity (PSR sort gate)” value read?
The value was “low polyreactivity”.

Which “polyreactivity (PSR sort gate)” value does the source give for “QVQLVESGGGVVQAGGSLRLSCAASGFIFTFYAMGWYRQAPGKERELVAAITGRGGRTYYADSVKGRFTISRDNAKNTVYLQMNSLKPEDTAVYYCAARYRYSVTPGYVYWGQGTQVTLSS” here?
The value was “high polyreactivity”.

For “QVQLVESWGGLVQAGGSLRLSCAASGITFPINTMGWYRQAPGKERELVAGIDWTGGSTYYADSVKGRFTISRDNAKNTVYLQMNSLKPEDTAVYYCAKRSYTGYEYWGQGTQVTVSS”, which “polyreactivity (PSR sort gate)” value is on record?
The value was “low polyreactivity”.

For “QVQLVESGGGLVQAGGSLRLSCAASGITFGYYAMGWYRQAPGKERELVASISWSGDSTYYADSVKGRFTISRDNAKNTVYLQMNSLKPEDTAVYYCNRGSSWEYGAEYNYWGQGTQVTVSS”, which “polyreactivity (PSR sort gate)” value is on record?
Its value is “low polyreactivity”.

With “QVQLVESGGGLVQAGGSLRLSCAASGITFNSYAKGWYRQAPGKERELVASISWIGGSTYYADSVKLRFTISRDNAKNTVYLQMNSLKPEDTAVYYCAVDKGTDYYYEVDYWGQGTQVTVSS” as the sequence, how does the “polyreactivity (PSR sort gate)” value read?
Its value is “low polyreactivity”.

For “QDQLVESGGRIVQAGGSLRLSCAASGRIFSVYARGWYRQAPGKERELVATISDGGATTYYADSVKGRFTISRDNAKNTVFFQMNSLKPEDTAVYYCAADKRGRPGLPDYDSWGQGTEVTVSS”, which “polyreactivity (PSR sort gate)” value is on record?
Its value is “low polyreactivity”.

For “QVQHVESGGGLVQAGGSLRLSCAASGRTFVNNAMGWYRQQPGKERELVAAITGSGGSTYYADSVKGRFTISRDNAKNTVYLLMNSLKPEDTAVYYCAKRLVGSRYLFDYWGQGTQVTVSS”, which “polyreactivity (PSR sort gate)” value is on record?
Its value is “low polyreactivity”.

Which “polyreactivity (PSR sort gate)” value does the source give for “QVQLVESGGGLVQAGGSLRLSCAASGRIFNGYAMGWYRQAPGKERELVASITSAGSTYFADSVTGRVTISRDNAKNTVYVQMNRLKPEDTAVYYCAADSYSVYYYTYDSWGQGTQVTVSS” here?
The value was “low polyreactivity”.

With “QVQLVESGGGLVQAGGSLRLSCAASGIIFWYYAMGWYRQAPGKERELVAAISSGGGTNYADSVKGRFTISRDNAKNTVSLQMNSLKPEDTAVYYCNADDNPVWEYDYWGQGTQVTVSS” as the sequence, how does the “polyreactivity (PSR sort gate)” value read?
The value was “low polyreactivity”.

With “QVQLVESGGGLVQAGGSLRLSCAASGSIFRGYGMGWYRQAPGKERELVAAITSGDSTNYADSVKARFTLSRDNAKTTVYLQMNSLKPEDTAVNYCAAASTGRPSVSYDYWGQGTQVTVSS” as the sequence, how does the “polyreactivity (PSR sort gate)” value read?
Its value is “low polyreactivity”.

For “QVQLVESGGGLVQAGGSLRLSCAASGSTFTRNAMGWYRPAPGKERELVAAITSSGGYTYYADSVKGRFTISRDNAKNTVYLQMNSLKPEDTAVYYCAAYPHRPRDRELDHWGQGTQVTVSS”, which “polyreactivity (PSR sort gate)” value is on record?
Its value is “low polyreactivity”.

With “QVQLVESGGGLVQAGGSLRLSCAASGFIFSSNAMGWYRQAPGKERELVARITWSDGSTYYADSVKGRFTISRDNAKNTVYLQMNSLKPEDTAVYYCAKGRDATHYEYYLYSMDYWGQGTQVTVSS” as the sequence, how does the “polyreactivity (PSR sort gate)” value read?
The value was “low polyreactivity”.

For “QVQLVESGGGLVQAGGSLRLSCAASGRIFAYYAMGWYRQAPGKERELVAAINRSGVRTYYADSVKGRFTISRDNAKNTVYLQMNSLKPEDTAVYYCAAPGQHSWGQGTQVTVSS”, which “polyreactivity (PSR sort gate)” value is on record?
The value was “high polyreactivity”.

Which “polyreactivity (PSR sort gate)” value does the source give for “QVQLVESGGGLVQAGGSLRLSCAASGFIFLGNAMGWYRQAPGKERELVASISRGGSTNYADSVKGRFTISRDNAKNTVYLQMTSLKPEDTAVYYCAADLSDKFGYWGQGTQVTVSS” here?
The value was “low polyreactivity”.

Which “polyreactivity (PSR sort gate)” value does the source give for “QVQLVESGGGLVQAGGSLRVSCAASGSIFRFHVMGWYRQAPGKERELVAAITRGDSTNYADSVKGRFTIPRDNAKNTVYLHMNSLKPEATAVYYCATKTPGWGIFDYWGPGTQVTVSS” here?
Its value is “low polyreactivity”.

For “QVQLVESGGGLVQAGGSLRLSCAASGRTFLTYAMGWYRQAPGKERELVAAISKRGGSTYYADSVKGRFTISRDNAKNTVYLQMNSLKPEDTAVYFCAADNGNHYGFWGQGTQVTVSS”, which “polyreactivity (PSR sort gate)” value is on record?
The value was “high polyreactivity”.

With “QVQLVESGGGLVQAGGSLRLSCADSGITFPVNDMGWSRQAHGKEREFVADITSSGGNTYYADSVKGRFTISRDNAKNTVYLKMNSLIPEDTAVYYCNADDGYFYVYQGWYEEMDYWGQGNQVTVSS” as the sequence, how does the “polyreactivity (PSR sort gate)” value read?
Its value is “high polyreactivity”.

With “QVQLVESGGGLVQAGGSLRLSCAASGSIFYPNAMGWYRQAPGKERELVAAINGGGSTYYADSVKGRFTISRDNAKNTVYLQMNSLKPEDTAVYYCAADSNDVYYDTPSYDYWGQGTQVTVSS” as the sequence, how does the “polyreactivity (PSR sort gate)” value read?
The value was “low polyreactivity”.

For “QVQLVETGGGLVQAGGSLRLSCAASGFIFAYNAMGWYRQAPGKERELVAAISWSGGSTYYADSVKGRFTISRDNAKITVYLQMNCLKPEDTAVYYCNAVSYFGARYDYWGQGTQVTVSS”, which “polyreactivity (PSR sort gate)” value is on record?
Its value is “high polyreactivity”.

Which “polyreactivity (PSR sort gate)” value does the source give for “QVQLVESVGGLVQAGGSLRLSCAASGSIFRLYAMGWYRQAPGKERELVAAITWSGGSTYYADSVKGRFTISRDNAKNTVYLQMNSLKPEDTAVYYCNALVGGYRSAIFGYWGQGTQVTVSS” here?
Its value is “high polyreactivity”.

Which “polyreactivity (PSR sort gate)” value does the source give for “QVQLVESGGGLVQAGGSLRLSCAASGRTFNYYAMGWYRQAPGKERELVAAITSGSTTYYADSVKGRFTISRDNAKNTVYLQMNSLKPEDTAVYYCATAWRPADNSWGQGTQVTVSS” here?
The value was “low polyreactivity”.

Which “polyreactivity (PSR sort gate)” value does the source give for “QVQLVESGGGLDQAGGSLRLICAASGLTFYLYAMGWYRQAPGKERELVAAISTRGGSTRYADSVKGRFTISRDNAKNTVYLQMNSLKPEDTAVFDCNAVSKWLEYDYWGQGTQVTVSS” here?
The value was “high polyreactivity”.

With “QVQLVESGGGLVQAGGSLRLSCAASGSTFQNYAMGWYRQAPGKERELVATINWSGGNTYYADSVKGRFTISRDNAKNTVYLQMNSLKPEDTAVYYCAADSPRYYYWVGPYYGYDYWGQGTQVTVSS” as the sequence, how does the “polyreactivity (PSR sort gate)” value read?
The value was “high polyreactivity”.

With “QVQLVESGGGLVQAGGSLRLSCAASGSIFYGNAMGWYRQAPGKERELVAAISSSGGSTYYADSVKGRFTISRDNAKNTVYLQMISLKPEDTAVYYCAADSTYYNSYDYWGQGTQVTVSS” as the sequence, how does the “polyreactivity (PSR sort gate)” value read?
Its value is “low polyreactivity”.

Which “polyreactivity (PSR sort gate)” value does the source give for “QVQLVESGGGLVQAGGSLRLSCAASGFTFAVYVMGWYRQAPGKERELVATISFSVGSTYYADSVKGRFTISGDNAKNTVYLQMNRLKPEDTAVYYCNADPPPEYYPDKDNYWGQGTQVTVSS” here?
Its value is “low polyreactivity”.
